According to US20240269303A1, “CELL TARGETING CONSTRUCTS AND USES THEREOF” (Research Development Foundation, priority 2022, published 2024):
Read-outs that look alike come from different tables or passages of the source.

How the values were obtained:
OVCAR8/LGR5 cells = assay: Growth rate inhibition assay (CCK8, 120 h exposure); format: cell-based, human
[1] = Stability of FcST4-MMAE (storage, low pH, freeze and thaw); format: physicochemical
Method: Based on the hypothesis that RSPO1 could be used to target cytotoxic drugs selectively to CSC, a compound that contained 2 binding domains and armed this with the cytotoxin monomethylaurostatin (R1FF-MMAE) was generated. Since affinity of a ligand can be affected by the number of binding sites, tests were performed to see if the potency of R1FF-MMAE could be further enhanced by increasing the number of binding domains. A vector capable of expressing a protein containing 4 modified binding domains was constructed, and the FcST4-His protein was successfully produced in transiently transfected HEK293E cells and purified using nickel and ion exchange resins. Following attaching MMAE to the polypeptide using the sortase reaction, this drug (FcST4-MMAE) was characterized using gel electrophoresis, HPLC analysis on ion exchange and size exclusion columns, Western blot, and cytotoxicity testing.
To assess the stability of the FcST4-MMAE molecule, the sample was subjected to multiple freeze and thaw cycles.

[2] = test system: HEK293e empty vector cells versus cells overexpressing LGR5 receptors; assay: FcST4-MMAE cytotoxicity assay (CCK8, day 6); format: cell-based, human; settings: batches 2-6
[3] = test system: OVCAR8 cells expressing empty vector versus cells overexpressing LGR5 receptors; assay: FcST4-MMAE cytotoxicity assay; format: cell-based, human
[4] = Plasma pharmacokinetics after IV injection (ELISA)
[5] = OVCAR8/EV vs OVCAR8/LGR5, 120 h, Fu1/Fu2 binding-disabling mutation study
[6] = OVCAR8/EV and OVCAR8/LGR5, proteins produced in ExpiCHO

B1: FcF2-Q71R-MMAE (conjugate)
chain: EPKSCDKTHTCPPCPAPELLGGPSVFLFPPKPKDTLMISRTPEVTCVVVDVSHEDPEVKFNWYVDGVEVHNAKTKPREEQYNSTYRVVSVLTVDHHDWLNGKEYKCKVSNKALPAPIEKTISKAKGQPREPQVYTLPPSRDELTKNQVSLTCLVKGFYPSDIAVEWESNGQPENNYKTTPPVLDSDGSFFLYSKLTVDKSRWQQGNVFSCSVMHEALHSHYTQKSLSLSPGKGGGGSGGGGSSRGIKGKRQRRISAEGSQACAKGCELCSEVNGCLKCSPKLFILLERNDIRRVGVCLPSCPPGYFDARNPDMNKCIKCKIEHCEACFSHNFCTKCKEGLYLHKGRCYPACPEGSSAANGTMECSSPGGGGSGGGGSLPETGGG
modifications: non-natural residues
IC50 ratio (OVCAR8/LGR5 cells; [5]): 5.1

B2: FcF2-F106R-F110R-MMAE (conjugate)
chain: EPKSCDKTHTCPPCPAPELLGGPSVFLFPPKPKDTLMISRTPEVTCVVVDVSHEDPEVKFNWYVDGVEVHNAKTKPREEQYNSTYRVVSVLTVDHHDWLNGKEYKCKVSNKALPAPIEKTISKAKGQPREPQVYTLPPSRDELTKNQVSLTCLVKGFYPSDIAVEWESNGQPENNYKTTPPVLDSDGSFFLYSKLTVDKSRWQQGNVFSCSVMHEALHSHYTQKSLSLSPGKGGGGSGGGGSSRGIKGKRQRRISAEGSQACAKGCELCSEVNGCLKCSPKLFILLERNDIRQVGVCLPSCPPGYFDARNPDMNKCIKCKIEHCEACRSHNRCTKCKEGLYLHKGRCYPACPEGSSAANGTMECSSPGGGGSGGGGSLPETGGG
modifications: non-natural residues
IC50 ratio (OVCAR8/LGR5 cells; [5]): 2.1

B3: FcF-Q71R-F106R-F110R-MMAE (conjugate)
chain: EPKSCDKTHTCPPCPAPELLGGPSVFLFPPKPKDTLMISRTPEVTCVVVDVSHEDPEVKFNWYVDGVEVHNAKTKPREEQYNSTYRVVSVLTVDHHDWLNGKEYKCKVSNKALPAPIEKTISKAKGQPREPQVYTLPPSRDELTKNQVSLTCLVKGFYPSDIAVEWESNGQPENNYKTTPPVLDSDGSFFLYSKLTVDKSRWQQGNVFSCSVMHEALHSHYTQKSLSLSPGKGGGGSGGGGSSRGIKGKRQRRISAEGSQACAKGCELCSEVNGCLKCSPKLFILLERNDIRRVGVCLPSCPPGYFDARNPDMNKCIKCKIEHCEACRSHNRCTKCKEGLYLHKGRCYPACPEGSSAANGTMECSSPGGGGSGGGGSLPETGGG
modifications: non-natural residues
IC50 ratio (OVCAR8/LGR5 cells; [5]): selectivity was abolished

B4: FcST4-MMAE: Mutated Fc with two receptor binding domains (ST) in series per chain (4 in dimer), sortase-conjugated to MMAE (conjugate)
chain: EPKSCDKTHTCPPCPAPELLGGPSVFLFPPKPKDTLMISRTPEVTCVVVDVSHEDPEVKFNWYVDGVEVHNAKTKPREEQYNSTYRVVSVLTVDHHDWLNGKEYKCKVSNKALPAPIEKTISKAKGQPREPQVYTLPPSRDELTKNQVSLTCLVKGFYPSDIAVEWESNGQPENNYKTTPPVLDSDGSFFLYSKLTVDKSRWQQGNVFSCSVMHEALHSHYTQKSLSLSPGKGGGGSGGGGSSRGIKGKRQRRISAEGSQACAKGCELCSEVNGCLKCSPKLFILLERNDIRQVGVCLPSCPPGYFDARNPDMNKCIKCKIEHCEACFSHNFCTKCKEGLYLHKGRCYPACPEGSSAANGTMECSSPGGGGSGGGGSSRGIKGKRQRRISAEGSQACAKGCELCSEVNGCLKCSPKLFILLERNDIRQVGVCLPSCPPGYFDARNPDMNKCIKCKIEHCEACFSHNFCTKCKEGLYLHKGRCYPACPEGSSAANGTMECSSPGGGGSGGGGSLPETGGG
modifications: non-natural residues
stability to freeze and thaw cycles (SEC130 trace) ([1]; 4 cycles): no significant change in the SEC130 trace | stability ([1]; at 4° C.): remarkably stable | stability ([1]; low pH of 3.0): remarkably stable | difference in targeted killing, empty vector vs LGR5-overexpressing cells [2]: not statistically significant | difference in targeted killing, empty vector vs LGR5-overexpressing cells ([3]; OVCAR8): not statistically significant | effect of increase in binding domains on potency ([3]; cytotoxicity testing): did not enhance potency

B5: FcF2Δlinker-MMAE (conjugate)
chain: EPKSCDKTHTCPPCPAPELLGGPSVFLFPPKPKDTLMISRTPEVTCVVVDVSHEDPEVKFNWYVDGVEVHNAKTKPREEQYNSTYRVVSVLTVDHHDWLNGKEYKCKVSNKALPAPIEKTISKAKGQPREPQVYTLPPSRDELTKNQVSLTCLVKGFYPSDIAVEWESNGQPENNYKTTPPVLDSDGSFFLYSKLTVDKSRWQQGNVFSCSVMHEALHSHYTQKSLSLSPGKSRGIKGKRQRRISAEGSQACAKGCELCSEVNGCLKCSPKLFILLERNDIRQVGVCLPSCPPGYFDARNPDMNKCIKCKIEHCEACFSHNFCTKCKEGLYLHKGRCYPACPEGSSAANGTMECSSPLPETGGG
modifications: non-natural residues
IC50 values or degree of selectivity compared with FcF2-MMAE (OVCAR8/LGR5 cells; [6]): no clear differences in IC50 values or degree of selectivity | potency compared with FcF2-MMAE (OVCAR8/LGR5 cells; [6]): appeared to be less potent against both LGR5-poor and LGR5-rich cells

B6: FcF2-PNU159682: FcF2-His conjugated with PNU159682, an anthracycline derivative, using sortase A (conjugate)
chain: EPKSCDKTHTCPPCPAPELLGGPSVFLFPPKPKDTLMISRTPEVTCVVVDVSHEDPEVKFNWYVDGVEVHNAKTKPREEQYNSTYRVVSVLTVDHHDWLNGKEYKCKVSNKALPAPIEKTISKAKGQPREPQVYTLPPSRDELTKNQVSLTCLVKGFYPSDIAVEWESNGQPENNYKTTPPVLDSDGSFFLYSKLTVDKSRWQQGNVFSCSVMHEALHSHYTQKSLSLSPGKGGGGSGGGGSSRGIKGKRQRRISAEGSQACAKGCELCSEVNGCLKCSPKLFILLERNDIRQVGVCLPSCPPGYFDARNPDMNKCIKCKIEHCEACFSHNFCTKCKEGLYLHKGRCYPACPEGSSAANGTMECSSPGGGGSGGGGSLPET
modifications: cyclised or stapled
IC50 ratio (OVCAR8/LGR5 cells): approximately 10

B7: FcF2-R28A-MMAE: FcF2-MMAE with R28A substitution in the Fu1-Fu2 region (SEQ ID NO: 98) (conjugate)
chain: EPKSCDKTHTCPPCPAPELLGGPSVFLFPPKPKDTLMISRTPEVTCVVVDVSHEDPEVKFNWYVDGVEVHNAKTKPREEQYNSTYRVVSVLTVDHHDWLNGKEYKCKVSNKALPAPIEKTISKAKGQPREPQVYTLPPSRDELTKNQVSLTCLVKGFYPSDIAVEWESNGQPENNYKTTPPVLDSDGSFFLYSKLTVDKSRWQQGNVFSCSVMHEALHSHYTQKSLSLSPGKGGGGSGGGGSSRGIKGKAQRRISAEGSQACAKGCELCSEVNGCLKCSPKLFILLERNDIRQVGVCLPSCPPGYFDARNPDMNKCIKCKIEHCEACFSHNFCTKCKEGLYLHKGRCYPACPEGSSAANGTMECSSPGGGGSGGGGSLPETGGG
modifications: non-natural residues
potency and selectivity for LGR5-rich cells compared with FcF2-MMAE (WT) (OVCAR8/LGR5 cells): neither the R28A nor the R30A mutation altered potency of selectivity | increase of AUC0-120 versus FcF2-MMAE (WT) ([4]; IV injection): 3.4 fold | initial half-life versus FcF2-MMAE (WT) ([4]; IV injection): prolonged the initial half-life | plasma concentration higher than that of FcF2-MMAE ([4]; early phase of the plasma decay curve): > 2 orders of magnitude

B8: FcF2-R30A-MMAE: FcF2-MMAE with R30A substitution in the Fu1-Fu2 region (SEQ ID NO: 102) (conjugate)
chain: EPKSCDKTHTCPPCPAPELLGGPSVFLFPPKPKDTLMISRTPEVTCVVVDVSHEDPEVKFNWYVDGVEVHNAKTKPREEQYNSTYRVVSVLTVDHHDWLNGKEYKCKVSNKALPAPIEKTISKAKGQPREPQVYTLPPSRDELTKNQVSLTCLVKGFYPSDIAVEWESNGQPENNYKTTPPVLDSDGSFFLYSKLTVDKSRWQQGNVFSCSVMHEALHSHYTQKSLSLSPGKGGGGSGGGGSSRGIKGKRQARISAEGSQACAKGCELCSEVNGCLKCSPKLFILLERNDIRQVGVCLPSCPPGYFDARNPDMNKCIKCKIEHCEACFSHNFCTKCKEGLYLHKGRCYPACPEGSSAANGTMECSSPGGGGSGGGGSLPETGGG
modifications: non-natural residues
potency and selectivity for LGR5-rich cells compared with FcF2-MMAE (WT) (OVCAR8/LGR5 cells): neither the R28A nor the R30A mutation altered potency of selectivity
